From publication PMC4136673
Ends that are not written are not given here. * marks the point of attachment. Pyruvoyl = CC(=O)C(=O)*

T1: His6-ElxO (Staphylococcus epidermidis 15X154) (UniProt I6ZQW6)
T1 sequence: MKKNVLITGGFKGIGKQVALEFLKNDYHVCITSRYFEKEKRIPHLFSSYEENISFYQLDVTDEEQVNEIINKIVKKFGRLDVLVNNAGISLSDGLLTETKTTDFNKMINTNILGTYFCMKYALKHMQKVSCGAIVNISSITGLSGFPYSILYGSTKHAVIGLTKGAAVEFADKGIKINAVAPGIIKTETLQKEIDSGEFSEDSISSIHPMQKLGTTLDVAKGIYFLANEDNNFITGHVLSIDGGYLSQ

B1: Pyr-AAIVK (peptide)
peptide: Pyruvoyl-AAIVK
B2: Pyr-AAIV (peptide)
peptide: Pyruvoyl-AAIV

These molecules were tested against T1, His6-ElxO (Staphylococcus epidermidis 15X154).
Work on Pyr-A (peptide) yielded a kcat/Km of reduction by His6-ElxO with NADPH (absorbance at 340 nm) of under 0.03 M⁻¹ s⁻¹.
With Pyr-AA (peptide) the kcat/Km of reduction by His6-ElxO with NADPH (absorbance at 340 nm) was under 0.03 M⁻¹ s⁻¹.
In the case of Pyr-AAIVKBBIKAAKK (peptide), the kcat/Km of reduction by His6-ElxO with NADPH (absorbance at 340 nm) is reported as 14.2 M⁻¹ s⁻¹.
With Pyr-AAI (peptide) the kcat/Km of reduction by His6-ElxO with NADPH (absorbance at 340 nm) was 0.06 M⁻¹ s⁻¹.
With B1 the kcat/Km of reduction by His6-ElxO with NADPH (absorbance at 340 nm) was 2.43 M⁻¹ s⁻¹.
For B2, the kcat/Km of reduction by His6-ElxO with NADPH (absorbance at 340 nm) was 1.13 M⁻¹ s⁻¹.
